From patent publication US20230416365A1 (Hoffmann-La Roche, published 2023)
One block for each binder: values may come before it.

Tests used:
[1] = biological target: T1, human FAP on 3T3-huFAP cells (clone 19) (human, UniProt Q12884 1-760); assay: flow cytometry on 3T3-huFAP cells, median fluorescence intensity
[2] = biological target: T2, human CD28 on CHO cells (parental cell line CHO-k1 ATCC #CCL-61, modified to stably overexpress human CD28) (human, UniProt P10747 19-220); assay: flow cytometry on CHO-k1 cells expressing human CD28, PE anti-human secondary antibody, MFI
T2 construct: also called hu CD28; CHO-hCD28

[3] = biological target: T3, human HER3 on T-47D cells (human, UniProt P21860 20-1342); assay: flow cytometry on T-47D cells, PE anti-human secondary antibody, MFI
T3 construct: also called ErbB3

[4] = biological target: T4, human CEA (CEACAM5), form in the assay not stated (human, UniProt P06731 35-685, limits assumed); assay: SPR
T4 sequence: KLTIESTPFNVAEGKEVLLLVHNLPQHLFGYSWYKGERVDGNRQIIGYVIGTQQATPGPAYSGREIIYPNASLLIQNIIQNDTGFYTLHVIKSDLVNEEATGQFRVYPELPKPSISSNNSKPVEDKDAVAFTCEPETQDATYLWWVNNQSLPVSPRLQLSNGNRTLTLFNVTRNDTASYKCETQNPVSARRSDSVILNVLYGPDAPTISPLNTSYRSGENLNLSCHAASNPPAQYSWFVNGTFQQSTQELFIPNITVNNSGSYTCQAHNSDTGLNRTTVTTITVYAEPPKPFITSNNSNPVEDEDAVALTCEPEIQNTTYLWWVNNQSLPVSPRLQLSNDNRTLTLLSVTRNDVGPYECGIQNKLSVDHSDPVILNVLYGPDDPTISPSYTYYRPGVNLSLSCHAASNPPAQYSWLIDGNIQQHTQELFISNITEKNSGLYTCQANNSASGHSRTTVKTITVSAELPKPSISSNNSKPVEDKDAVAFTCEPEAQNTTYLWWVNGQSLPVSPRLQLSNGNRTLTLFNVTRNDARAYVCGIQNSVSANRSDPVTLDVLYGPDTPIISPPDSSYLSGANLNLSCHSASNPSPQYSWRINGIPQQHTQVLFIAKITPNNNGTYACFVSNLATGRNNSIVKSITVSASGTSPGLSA

[5] = biological target: T5, recombinant CD79b-His (Sinobiological #29750-H08H) (UniProt P40259 29-159); assay: SPR, Biacore T200, CD79b-His captured by anti-penta-His on CM5, bispecific as analyte
T5 construct: bought; whole entry named, limits unknown; also called soluble recombinant CD79b-His
T5 sequence (looked up): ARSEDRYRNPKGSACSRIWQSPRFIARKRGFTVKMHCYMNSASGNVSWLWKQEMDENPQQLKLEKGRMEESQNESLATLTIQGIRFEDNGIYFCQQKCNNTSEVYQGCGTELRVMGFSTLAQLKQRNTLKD

[6] = biological target: T1, human FAP on 3T3-huFAP cells (clone 19); assay: flow cytometry on 3T3-huFAP cells, PE anti-human secondary antibody, median fluorescence intensity

B3: humanized CEA antibody A5H1EL1D (format in the assay not stated) (antibody, V domains shown)
VH: EVQLLESGGGLVQPGGSLRLSCAASGFTFTDYYMNWVRQAPGKGLEWLGFIGNKANAYTTEYSASVKGRFTISRDKSKNTLYLQMNSLRAEDTATYYCTRDRGLRFYFDYWGQGTTVTVSS
VL: EIVLTQSPATLSLSPGERATLSCRASSSVTYIHWYQQKPGQAPRSWIYATSNLASGIPARFSGSGSGTDFTLTISSLEPEDFAVYYCQHWSSKPPTFGQGTKLEIK
notes: heavy chain with VH variant 3-23A5-1E and Ckappa light chain with VL variant A5-L1D; also called huA5B7
Kd [4]: ~2.5 nM

B5: FAP-CD28SA 2+2 (P1AD4493) (bispecific antibody, human IgG1, kappa, L234A L235A)
CD28(SA) light chain VL-CL RK: not shown
heavy chain CD28(SA) VHCH1 EE - Fc PGLALA - FAP(4B9) VHCL: not shown
FAP(4B9) VLCH1: EIVLTQSPGTLSLSPGERATLSCRASQSVTSSYLAWYQQKPGQAPRLLINVGSRRATGIPDRFSGSGSGTDFTLTISRLEPEDFAVYYCQQGIMLPPTFGQGTKVEIKSSASTKGPSVFPLAPSSKSTSGGTAALGCLVKDYFPEPVTVSWNSGALTSGVHTFPAVLQSSGLYSLSSVVTVPSSSLGTQTYICNVNHKPSNTKVDKKVEPKSCD
notes: bivalent for CD28 and bivalent for FAP; copy numbers follow from the 2+2 format; also called Molecule F; FAP(4B9)-CD28(SA) 2+2
EC50 (read off the curve) [6]: ~2 nM | EC50 (read off the curve) [1]: ~2 nM

Second part, the binder after the results:

binding result [1]: binds
B1: FAP-CD28 1+4 (bispecific antibody, human IgG1, kappa, L234A L235A)
CD28(SA) light chain: not shown
heavy chain CD28(SA) VHCH-VHCH - Fc knob - FAP(4B9) VH: not shown
heavy chain CD28(SA) VHCH-VHCH - Fc hole - FAP(4B9) VL: QVQLVQSGAEVKKPGASVKVSCKASGYTFTSYYIHWVRQAPGQGLEWIGCIYPGNVNTNYNEKFKDRATLTVDTSISTAYMELSRLRSDDTAVYFCTRSHYGLDWNFDVWGQGTTVTVSSASTKGPSVFPLAPSSKSTSGGTAALGCLVKDYFPEPVTVSWNSGALTSGVHTFPAVLQSSGLYSLSSVVTVPSSSLGTQTYICNVNHKPSNTKVDKKVEPKSCDGGGGSGGGGSQVQLVQSGAEVKKPGASVKVSCKASGYTFTSYYIHWVRQAPGQGLEWIGCIYPGNVNTNYNEKFKDRATLTVDTSISTAYMELSRLRSDDTAVYFCTRSHYGLDWNFDVWGQGTTVTVSSASTKGPSVFPLAPSSKSTSGGTAALGCLVKDYFPEPVTVSWNSGALTSGVHTFPAVLQSSGLYSLSSVVTVPSSSLGTQTYICNVNHKPSNTKVDKKVEPKSCDKTHTCPPCPAPEAAGGPSVFLFPPKPKDTLMISRTPEVTCVVVDVSHEDPEVKFNWYVDGVEVHNAKTKPREEQYNSTYRVVSVLTVLHQDWLNGKEYKCKVSNKALGAPIEKTISKAKGQPREPQVCTLPPSRDELTKNQVSLSCAVKGFYPSDIAVEWESNGQPENNYKTTPPVLDSDGSFFLVSKLTVDKSRWQQGNVFSCSVMHEALHNHYTQKSLSLSPGGGGGSGGGGSGGGGSGGGGSEIVLTQSPGTLSLSPGERATLSCRASQSVTSSYLAWYQQKPGQAPRLLINVGSRRATGIPDRFSGSGSGTDFTLTISRLEPEDFAVYYCQQGIMLPPTFGQGTKVEIK
notes: tetravalent for CD28, monovalent for FAP; also called Molecule D; FAP(4B9)-CD28(SA) 1+4

binding result [2]: binds | EC50 (read off the curve) [3]: ~1 nM
B2: HER3(lumretuzumab)-CD28 (SA_Variant 15) 1+1 format (Molecule 14B) (bispecific antibody, human IgG1, kappa, L234A L235A)
heavy 1: not shown
light 1: not shown
heavy 2: DIVMTQSPDSLAVSLGERATINCKSSQSVLNSGNQKNYLTWYQQKPGQPPKLLIYWASTRESGVPDRFSGSGSGTDFTLTISSLQAEDVAVYYCQSDYSYPYTFGQGTKLEIKSSASTKGPSVFPLAPSSKSTSGGTAALGCLVKDYFPEPVTVSWNSGALTSGVHTFPAVLQSSGLYSLSSVVTVPSSSLGTQTYICNVNHKPSNTKVDKKVEPKSCDKTHTCPPCPAPEAAGGPSVFLFPPKPKDTLMISRTPEVTCVVVDVSHEDPEVKFNWYVDGVEVHNAKTKPREEQYNSTYRVVSVLTVLHQDWLNGKEYKCKVSNKALGAPIEKTISKAKGQPREPQVCTLPPSRDELTKNQVSLSCAVKGFYPSDIAVEWESNGQPENNYKTTPPVLDSDGSFFLVSKLTVDKSRWQQGNVFSCSVMHEALHNHYTQKSLSLSP
light 2: QVQLVQSGAEVKKPGASVKVSCKASGYTFRSSYISWVRQAPGQGLEWMGWIYAGTGSPSYNQKLQGRVTMTTDTSTSTAYMELRSLRSDDTAVYYCARHRDYYSNSLTYWGQGTLVTVSSASVAAPSVFIFPPSDEQLKSGTASVVCLLNNFYPREAKVQWKVDNALQSGNSQESVTEQDSKDSTYSLSSTLTLSKADYEKHKVYACEVTHQGLSSPVTKSFNRGEC
notes: huIgG1 PG-LALA CrossFab; also called P1AF0151; HER3-CD28

Kd [5]: 76 nM | koff [5]: 0.0195 s⁻¹ | kon [5]: 257000 M⁻¹ s⁻¹
B4: CD79b (huMA79b.v28)-CD28 (SA_v15) 1+1 (Molecule F of Example 18; 18F) (bispecific antibody, human IgG1, kappa, L234A L235A)
heavy 1: not shown
light 1: not shown
heavy 2: DIQLTQSPSSLSASVGDRVTITCKASQSVDYEGDSFLNWYQQKPGKAPKLLIYAASNLESGVPSRFSGSGSGTDFTLTISSLQPEDFATYYCQQSNEDPLTFGQGTKVEIKSSASTKGPSVFPLAPSSKSTSGGTAALGCLVKDYFPEPVTVSWNSGALTSGVHTFPAVLQSSGLYSLSSVVTVPSSSLGTQTYICNVNHKPSNTKVDKKVEPKSCDKTHTCPPCPAPEAAGGPSVFLFPPKPKDTLMISRTPEVTCVVVDVSHEDPEVKFNWYVDGVEVHNAKTKPREEQYNSTYRVVSVLTVLHQDWLNGKEYKCKVSNKALGAPIEKTISKAKGQPREPQVCTLPPSRDELTKNQVSLSCAVKGFYPSDIAVEWESNGQPENNYKTTPPVLDSDGSFFLVSKLTVDKSRWQQGNVFSCSVMHEALHNHYTQKSLSLSP
light 2: EVQLVESGGGLVQPGGSLRLSCAASGYTFSSYWIEWVRQAPGKGLEWIGEILPGGGDTNYNEIFKGRATFSADTSKNTAYLQMNSLRAEDTAVYYCTRRVPIRLDYWGQGTLVTVSSASVAAPSVFIFPPSDEQLKSGTASVVCLLNNFYPREAKVQWKVDNALQSGNSQESVTEQDSKDSTYSLSSTLTLSKADYEKHKVYACEVTHQGLSSPVTKSFNRGEC
notes: huIgG1 PG-LALA CrossFab; also called P1AE9039; CD79b-CD28
